Measured values taken from patent publication EP2123670B1.

How the values were obtained:
Settings in all cases: remark: other sources report otherwise
factor XIIa, P00748 [1] = target: T1, factor XIIa, P00748; experiment: SPR, Ir-CPI immobilised; two-state model, forward rate of the conformation change
T1 chain: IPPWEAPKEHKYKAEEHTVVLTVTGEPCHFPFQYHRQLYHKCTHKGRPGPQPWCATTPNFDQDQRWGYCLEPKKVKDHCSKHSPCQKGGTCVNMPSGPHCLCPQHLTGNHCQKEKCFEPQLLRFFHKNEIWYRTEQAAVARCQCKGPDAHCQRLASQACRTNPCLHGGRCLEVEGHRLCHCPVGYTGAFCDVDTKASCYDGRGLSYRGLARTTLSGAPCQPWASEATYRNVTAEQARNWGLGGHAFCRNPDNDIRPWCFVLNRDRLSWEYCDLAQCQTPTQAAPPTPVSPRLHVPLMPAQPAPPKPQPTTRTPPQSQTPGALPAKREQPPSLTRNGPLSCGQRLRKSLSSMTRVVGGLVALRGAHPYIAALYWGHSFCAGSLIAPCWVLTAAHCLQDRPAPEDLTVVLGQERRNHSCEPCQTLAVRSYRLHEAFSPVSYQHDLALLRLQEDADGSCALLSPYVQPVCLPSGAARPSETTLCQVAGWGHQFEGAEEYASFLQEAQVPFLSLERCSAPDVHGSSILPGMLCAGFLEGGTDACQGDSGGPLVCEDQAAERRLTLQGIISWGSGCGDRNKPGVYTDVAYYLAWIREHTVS

factor XIIa, P00748 [2] = target: T1, factor XIIa, P00748; experiment: SPR, Ir-CPI immobilised; two-state model, backward rate of the conformation change
factor XIIa, P00748 [3] = target: T1, factor XIIa, P00748; experiment: SPR (BIAcore X), Ir-CPI immobilised at about 200 RU, factor injected at 5-300 nM; two-state model, ka1 (first step)
factor XIIa, P00748 [4] = target: T1, factor XIIa, P00748; experiment: SPR, Ir-CPI immobilised; two-state model, global equilibrium constant K = ka1ka2/kd1kd2
factor XIIa, P00748 [5] = target: T1, factor XIIa, P00748; experiment: SPR (BIAcore X), Ir-CPI immobilised at about 200 RU, factor injected at 5-300 nM; two-state model, kd1 (first step)

B1: Ir-CPI, Q9GP15 20-86 (protein)
chain: ANHKGRGRPAKCKLPPDDGPCRARIPSYYFDRKTKTCKEFMYGGCEGNENNFENITTCQEECRAKKV
Factor XIIa, P00748 [1]
  ka2: 0.655 s⁻¹
Factor XIIa, P00748 [2]
  kd2: 0.105 s⁻¹
Factor XIIa, P00748 [3]
  kon: 219000 M⁻¹ s⁻¹
Factor XIIa, P00748 [4]
  Ka: 1.68e+08 M⁻¹
Factor XIIa, P00748 [5]
  koff: 0.0946 s⁻¹
